Data as given in patent US20220242973A1 (Molecular Partners, published 2022).

T1: Recombinant human FAP (fibroblast activation protein) (human, UniProt Q12884 26-760)
T1 sequence (looked up): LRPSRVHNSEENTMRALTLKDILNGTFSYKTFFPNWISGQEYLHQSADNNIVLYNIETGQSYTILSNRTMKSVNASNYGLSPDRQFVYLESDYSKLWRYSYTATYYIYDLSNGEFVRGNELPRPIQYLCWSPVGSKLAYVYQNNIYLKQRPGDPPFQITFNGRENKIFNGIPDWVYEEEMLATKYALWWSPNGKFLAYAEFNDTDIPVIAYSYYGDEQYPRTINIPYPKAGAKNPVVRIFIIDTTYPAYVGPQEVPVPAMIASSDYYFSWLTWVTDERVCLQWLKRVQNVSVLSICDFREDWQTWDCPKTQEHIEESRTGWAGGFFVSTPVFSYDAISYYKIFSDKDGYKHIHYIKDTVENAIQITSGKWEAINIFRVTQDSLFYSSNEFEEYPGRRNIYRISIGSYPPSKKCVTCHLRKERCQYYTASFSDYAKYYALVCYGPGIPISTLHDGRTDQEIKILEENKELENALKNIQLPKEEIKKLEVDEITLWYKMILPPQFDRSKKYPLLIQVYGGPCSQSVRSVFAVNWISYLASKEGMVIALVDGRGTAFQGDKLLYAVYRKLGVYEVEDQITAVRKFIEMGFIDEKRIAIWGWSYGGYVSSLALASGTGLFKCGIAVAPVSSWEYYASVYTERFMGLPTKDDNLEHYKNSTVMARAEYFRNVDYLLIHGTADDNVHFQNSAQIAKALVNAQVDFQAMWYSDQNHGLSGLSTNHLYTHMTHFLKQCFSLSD

T2: Human FAP expressed on the cell surface (WI38, CHO-FAP1.9, U87MG cells) (human, UniProt Q12884 1-760)
T2 construct: whole, on cells; Endogenous on WI38 and U87MG cells; from a human FAP cDNA (OriGene) in CHO-FAP1.9 cells; also called hFAP; FAP+ cells
T2 sequence (looked up): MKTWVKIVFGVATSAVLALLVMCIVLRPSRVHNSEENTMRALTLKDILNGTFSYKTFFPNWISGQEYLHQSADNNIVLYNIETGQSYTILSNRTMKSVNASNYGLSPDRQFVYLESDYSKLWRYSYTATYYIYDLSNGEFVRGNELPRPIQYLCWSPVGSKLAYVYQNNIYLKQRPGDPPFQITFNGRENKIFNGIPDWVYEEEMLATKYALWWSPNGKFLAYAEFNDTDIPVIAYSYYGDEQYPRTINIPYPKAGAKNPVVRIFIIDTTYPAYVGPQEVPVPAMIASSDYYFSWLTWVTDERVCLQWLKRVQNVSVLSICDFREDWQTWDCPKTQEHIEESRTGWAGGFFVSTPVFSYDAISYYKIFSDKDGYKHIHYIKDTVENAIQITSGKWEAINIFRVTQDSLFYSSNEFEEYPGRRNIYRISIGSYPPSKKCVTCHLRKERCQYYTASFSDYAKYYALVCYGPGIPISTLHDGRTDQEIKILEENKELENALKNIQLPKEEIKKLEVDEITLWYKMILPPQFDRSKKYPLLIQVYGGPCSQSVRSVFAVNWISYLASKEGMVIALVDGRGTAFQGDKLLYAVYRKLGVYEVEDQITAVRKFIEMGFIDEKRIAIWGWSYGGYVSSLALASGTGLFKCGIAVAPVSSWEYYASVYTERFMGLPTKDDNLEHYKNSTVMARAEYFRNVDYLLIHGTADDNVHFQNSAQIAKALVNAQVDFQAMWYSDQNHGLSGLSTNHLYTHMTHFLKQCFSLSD


Tests used:
[1] = target: T1, Recombinant human FAP (fibroblast …); test: cell-based or functional assay
[2] = target: T2, Human FAP expressed on the cell surface …; test: FACS on FAP-expressing WI38 cells, Penta-His AF647 detection
Procedure: Using multi-well plates, 20,000 WI38 cells were added per well in 50 μl of PBS. 50 μl of appropriate dilutions (2× dilution steps) of ankyrin repeat protein was then added to the cells and incubated for 30 minutes on ice. After the ankyrin repeat protein-binding reaction, cells were washed twice with PBS. Direct immunofluorescent detection of the His-tagged ankyrin repeat proteins using Penta-His AF647 conjugate (QIAgen) and determination of live cells using LIVE/DEAD™ Fixable Green Dead Cell Stain Kit (ThermoFisher) were then performed together in one step. The Penta-His AF647 conjugate and the LIVE/DEAD™ Fixable Green dye were applied to the cells together in 1/200 (Penta-His) and 1/1000 (LID Fixable) final dilutions and incubated for 20-30 minutes on ice. After washing the cells with PBS, cells were re-suspended in 1× CellFix™ buffer (BD Biosciences) (10× stock was diluted 1/10 in water). The samples were incubated in CellFix™ buffer for 15-20 minutes at RT, then spun down at 400 g for 5 min. Supernatant was discarded and cells were re-suspended in 200 μl PBS and stored at 4° C. until acquisition and FACS analysis. Acquisition and FACS analysis, including the determination of median fluorescence intensity (MFI), were done within 5 days after staining using an AttuneNxT instrument. Binding curves were fitted by non-linear regression curve fitting using GraphPad Prism software (v 7.0.4).
EC₅₀ values were determined using standard procedures known to the person skilled in the art. […] Table 2 provides the EC₅₀ values of selected ankyrin repeat proteins as examples.

[3] = target: T1, Recombinant human FAP (fibroblast …); test: SPR (ProteOn), human FAP immobilized on GLC chip
Procedure: Briefly, human FAP was diluted in 10 mM Na-acetate pH 5.3 buffer and covalently immobilized on a GLC chip (BioRad) to a level of around 2000 resonance units (RU). The interaction of ankyrin repeat protein and hFAP was then measured by injecting 200 μl running buffer (PBS, pH 7.4 containing 0.005% Tween 20®) containing serial dilutions of ankyrin repeat proteins covering a concentration range between 30 nM and 0.5 nM (on-rate measurement), followed by a running buffer flow for at least 25 minutes at a constant flow rate of 100 μl/min (off-rate measurement). The regeneration was performed using 15 μl of 10 mM Glycine pH 2 followed by 15 μl of 124 mM H₃PO₄. The signals (i.e. resonance unit (RU) values) of the interspots and a reference injection (i.e. injection of running buffer only) were subtracted from the RU traces obtained after injection of ankyrin repeat protein (double-referencing). Based on the SPR traces obtained from the on-rate and off-rate measurements, the on- and off-rate of the corresponding ankyrin repeat protein—FAP interaction was determined.
Dissociation constants (KD) were calculated from the estimated on- and off-rates using standard procedures known to the person skilled in the art. […] Table 1 provides the KD values of some selected ankyrin repeat proteins as examples.

Binder | FAP activity (%) [1] [%] | EC50 [2] [nM] | Kd [3] [nM]
DARPin® protein #3 (designed binder) MRGSHHHHHHGSYPYDVPDYAGSDMGKKLLEAARAGQDDEVRILMANGADVNAFDQVGRTPLHLDALAGHLEIVEVLLKHGADVNAADMFGITPLHLAAFIGHLEIVEVLLKHGADVNAYDLDGRTPLHPAAYHGHLEIVEVLLKNGADVNAQDKFGKTAFDISIDNGNEDLAEILQKLN | 116 | 5.72 | 5.43
DARPin® protein #15 (designed binder) MRGSHHHHHHGSYPYDVPDYAGSDLGKKLLEAARAGQDDEVRILMANGADVNAFDAIGRTPLHLAALYGHLEIVEVLLKHVADVNATDEYGITPLHLAAFMGHLEIVEVLLKYGADVNAIDFDGRTPLHPAAYRGHLEIVEVLLKHGADVNAQDKFGKTAFDISIDNGNEDLAEILQKLN | 93 | 0.33 | < 0.01
DARPin® protein #22 (designed binder) MRGSHHHHHHGSYPYDVPDYAGSDLGDKLLTAANYGQDDEVRILLAAGADVNAKDRFGHTPLHVAAHFGHLEIVEVLLKAGADVNAKDSLGHTPLHLAAEAGHLEIVEVLLKAGADVNAQDFHGITPADLAAHQGHEDIAEVLQKLN | 100 | 1.22 | 3.4
DARPin® protein #23 (designed binder) MRGSHHHHHHGSYPYDVPDYAGSDLGLKLLSAAQVGQDDEVRILLAAGADVNVKDQFGHTPLHVATHFGHLEIVEVLLKAGADVNAKDALGHTPLHLAAEAGHLEIVEVLLKAGADVNAQDAHGRTPADLAAQLGHEDIAEVLQKLN | 100 | 1.82 | 2.78
DARPin® protein #21 (designed binder) MRGSHHHHHHGSYPYDVPDYAGSDLGQKLLNAAFIGQDDEVRILLAAGAGVNAKDRHGHTPLHVTAHHGHLEIVEVLLKAGTDVNAKDNQGNTPLHVAAEADHLEIVEVLLKAGADVNAQDAHGRTPADLAAQLGHEDIAEVLQKLN | 108 | 2.19 | 0.885
DARPin® protein #7 (designed binder) MRGSHHHHHHGSYPYDVPDYAGSDLGKKLLEAARAGQDDEVRELLKAGADVNAKDEWGKTPLHLAAALGHLEIVEVLLKAGADVNAKDAWGATPLHVAAFAGHLEIVEVLLKAGADVNAKDTIGFTPLHLAAHSGHLEIVEVLLKAGADVNAQDKSGKTPADLAADAGHEDIVEVLQKLN | 123 | 1.45 | 0.744
DARPin® protein #27 (designed binder) MRGSHHHHHHGSYPYDVPDYAGSDLGKKLLEAARAGQDDEVRELLKAGADVNAKDEWDKTPLHYAAALGHLEIVEVLLKAGADVNAKDVWGATPLHIAAFAGHLEIVEVLLKAGADVNAKDTLGYTPLHLAATRGHLEIVEALLKAGADVNAQDKSGKTPADLAADVGHEDIAEVLQKLN | 110 | 0.664 | 0.441
DARPin® protein #32 (designed binder) MRGSHHHHHHGSYPYDVPDYAGSDLGKKLLEAARAGQDDEVRELLKAGADVNAKDEWDKTPLHLAAALDHLEIVEVLLKAGADVNAKDQYGATPLHVAAFAGHLEIVEVLLKAGADVNAKDLFGWTPLHLAALRGHLEIVEVLLKAGADVNAQDKSGKTPADLAADAGHEDIVEVLQKLN | 138 | 0.918 | 0.527
DARPin® protein #28 (designed binder) MRGSHHHHHHGSYPYDVPDYAGSDLGKKLLEAARAGQDDEVRELLKAGADVNAKDEWGKTPLHYAAALGHLEIVEVLLKAGADVNAKDRWGATPLHIAAFAGHLEIVEVLLKAGADVNAKDEVGWTPLHLAARSGHLEIVEVLLKVGADVNAQDKSGKTPADLAADAGHEDIVEVLQKLN | 103 | 0.781 | 0.15
DARPin® protein #29 (designed binder) MRGSHHHHHHGSYPYDVPDYAGSDLGKKLLEAARAGQDDEVRELLKAGADVNAKDTIGRTPLHIAARYGHLEIVEVLLKAGADVNAKDVYDITPLHLAAFLGHLEIVEVLLKAGADVNAKDYEGTTPLHVAAWHGHLEIVEVLLKAGADVNAQDKSGKTPADLAADAGHEDIAEVLQKLN | 109 | 1.13 | 0.255
DARPin® protein #30 (designed binder) MRGSHHHHHHGSYPYDVPDYAGSDMGKKLLEAARAGQDDEVRELLKAGADVNAKDEWGWTPLHVAAERGHLEIVEVLLKAGADVNAKDKHGVTPLHLAAWRGHLEIVEVLLKAGADVNAKDIQGLTPLHIAAHQGHLEIVEVLLKAGADVNAQDKSGKTPADLAADAGHEDIAEVLQKLN | 101 | 0.65 | 7.02
DARPin® protein #24 (designed binder) MRGSHHHHHHGSYPYDVPDYAGSDLGEKLLEAARRGQDDEVRELLKAGADVNAKDRYGITPLHLAAFLGHLEIVEVLLKDGADVNAKDEWGATPLHVAAYKGHLEIVEVLLKAGADVNAQDLYGKTPADLAAEQGHEDIEEVLQKLN | 102 | 4.49 | 1.47
DARPin® protein #2 (designed binder) MRGSHHHHHHGSYPYDVPDYAGSDLGKKLLEAARAGQDDEVRILLAAGADINAKDKYGVTPLHLAAWAGHLEIVEVLLKAGADVNAKDQSGFTPLHLAAHRGHLEIVEVLLKAGADVNAKDYRGFTPLHLAAEDGHLEIVEVLLKAGADVNAQDKSGKTPADLAADAGHEDIAEVLQKLN | 117 | 5.26 | 8.24
